Consider five molecules from article PMC6235398, “Unveiling the structural features that determine the dual methyltransferase activities of Streptococcus pneumoniae RlmCD”.

Data set [1] deals with T1, RlmCD 1-454 E443Q (Streptococcus pneumoniae, UniProt Q97R12 1-454, E443Q). Kind of data set: X-ray crystallography; SAH (SAM added); covalent C408-U747; space group P1, two complexes per asymmetric unit; EMSA: 20 mM Tris-HCl pH 8.0, 250 mM NaCl, 1 mM MgCl2, 0.5 uM FAM-RNA, 5 uM SAH, 0-5 uM protein, 37 C 30 min; 10% native PAGE on ice. The settings on record: protein: recombinant; tags: 8xHis-SUMO removed by ULP1; hairpin, 2 bp stem (743-754, 744-753).

For another data set, the target named is RlmCD WT (Streptococcus pneumoniae, UniProt Q97R12 1-543). Kind of data set: EMSA; 5 uM SAH; two shifted bands; EMSA: 20 mM Tris-HCl pH 8.0, 250 mM NaCl, 1 mM MgCl2, 0.5 uM FAM-RNA, 5 uM SAH, 0-5 uM protein, 37 C 30 min; 10% native PAGE on ice. The settings on record: protein: recombinant; tags: 8xHis-SUMO removed by ULP1; label: 5'-FAM; 5' single strand with 3' hairpin. For orientation: A gel shift assay detects complexes by their altered migration in electrophoresis.

In the next data set the target is RlmCD D381A (Streptococcus pneumoniae, UniProt Q97R12 1-543, D381A). Kind of data set: EMSA; 5 uM SAH; not severely affected vs WT; EMSA: 20 mM Tris-HCl pH 8.0, 250 mM NaCl, 1 mM MgCl2, 0.5 uM FAM-RNA, 5 uM SAH, 0-5 uM protein, 37 C 30 min; 10% native PAGE on ice. The settings on record: protein: recombinant, tags: 8xHis-SUMO removed by ULP1, label: 5'-FAM.
The target in a further data set is RlmCD Q283A (Streptococcus pneumoniae, UniProt Q97R12 1-543, Q283A). The data set is described as above. Conditions: protein: recombinant, tags: 8xHis-SUMO removed by ULP1, label: 5'-FAM.
The target of a further data set is RlmCD F145A (Streptococcus pneumoniae, UniProt Q97R12 1-543, F145A). Kind of data set: EMSA; 5 uM SAH; almost no effect vs WT; EMSA: 20 mM Tris-HCl pH 8.0, 250 mM NaCl, 1 mM MgCl2, 0.5 uM FAM-RNA, 5 uM SAH, 0-5 uM protein, 37 C 30 min; 10% native PAGE on ice. Conditions: protein: recombinant; tags: 8xHis-SUMO removed by ULP1; label: 5'-FAM; 5' single strand with 3' hairpin.

Data set [2] deals with T1, RlmCD 1-454 E443Q. Kind of data set: X-ray crystallography; SAH (SAM added); covalent C408-U747; EMSA: 20 mM Tris-HCl pH 8.0, 250 mM NaCl, 1 mM MgCl2, 0.5 uM FAM-RNA, 5 uM SAH, 0-5 uM protein, 37 C 30 min; 10% native PAGE on ice. Conditions: protein: recombinant; tags: 8xHis-SUMO removed by ULP1; single strand.
Data set [3] deals with T1, RlmCD 1-454 E443Q. Kind of data set: X-ray crystallography; SAH (SAM added); covalent C408-U1939; 3.10 A; EMSA: 20 mM Tris-HCl pH 8.0, 250 mM NaCl, 1 mM MgCl2, 0.5 uM FAM-RNA, 5 uM SAH, 0-5 uM protein, 37 C 30 min; 10% native PAGE on ice. Conditions: protein: recombinant; tags: 8xHis-SUMO removed by ULP1; single strand.
The mark [4] stands for this setting: 5' single strand with 3' hairpin.
Setting [5] is: hairpin, 2 bp stem (743-754, 744-753).

CCGUUGAAAAGG (structured_RNA, m5 at U747 formed in crystal, covalent to C408) [U747SL]: the binding result with RlmCD 1-454 E443Q [1] was “binds”.

For GCGAAAUUCCUUGUCGGGUAAGUUCCGACC (structured_RNA) [FAM-U1939 30-nt], the binding result with RlmCD WT, in the data set with RlmCD D381A (setting [4]), with RlmCD Q283A (setting [4]) and in the data set with RlmCD F145A was “binds” throughout.

As to GUUGAAAA (ssRNA, m5 at U747 formed in crystal, covalent to C408) [U747L], the binding result with RlmCD 1-454 E443Q [2] was “binds”.

For the molecule AAAUUCCU (ssRNA, m5 at U1939 formed in crystal, covalent to C408) [U1939L], the binding result with RlmCD 1-454 E443Q [3] is listed as “binds”.

With CCGUUGAAAAGG (structured_RNA) [FAM-U747SL], the binding result with RlmCD D381A (setting [5]) and with RlmCD Q283A (setting [5]) was “binds” each time.
